Consider one molecule from publication PMC6905151, “Mapping of the binding site for FcμR in human IgM-Fc” (Biochimica et Biophysica Acta. Proteins and Proteomics, 2020).

The Kd is the constant that tells how readily two partners part at equilibrium. Read a high Kd as weaker binding.

This test concerns the target T1, soluble extracellular immunoglobulin-like domain of FcμR (human).
T1 construct: FcμR (FAIM3, TOSO), human; 390-aa polypeptide with a 17-aa signal peptide and a 107-aa Ig-like domain; The receptor clone came from Prof; H. Kubagawa; also called sIgFcμR; not shown: His tag (from the nickel column chromatography)
T1 sequence (O60667 whole entry, looked up): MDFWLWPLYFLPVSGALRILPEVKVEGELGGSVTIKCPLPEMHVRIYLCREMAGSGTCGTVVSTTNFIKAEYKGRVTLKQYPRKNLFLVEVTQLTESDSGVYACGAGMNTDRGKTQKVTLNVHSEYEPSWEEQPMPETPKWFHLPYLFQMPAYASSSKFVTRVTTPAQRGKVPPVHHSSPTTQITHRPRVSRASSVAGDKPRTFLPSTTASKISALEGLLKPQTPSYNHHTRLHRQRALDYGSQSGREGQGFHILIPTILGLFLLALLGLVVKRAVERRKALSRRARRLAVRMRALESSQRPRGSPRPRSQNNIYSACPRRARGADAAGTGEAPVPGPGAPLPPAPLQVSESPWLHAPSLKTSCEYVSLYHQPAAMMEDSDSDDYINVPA
The test can be described thus: SPR; Biacore T200, 25 °C, 0.01 M HEPES, 0.15 M NaCl, 0.005% Surfactant P20, pH 7.4; IgM, IgM-Fc, Fcμ3-4 or IgM-Fc mutants immobilised on CM5 by amine coupling; analyte sIgFcμR 0.25 μM to 12 μM; steady state, 1:1 binding model. The following applies: both partners purified. Background: SPR reads the build-up and loss of mass on a sensor chip optically.

B1: Fcμ3-4, dimer of Cμ3-Cμ4 domains (domain or fragment)
chain: DQDTAIRVFAIPPSFASIFLTKSTKLTCLVTDLTTYDSVTISWTRQNGEAVKTHTNISESHPNATFSAVGEASISEDDWNSGERFTCTVTHTDLPSPLKQTISRPKGVALHRPDVYLLPPAREQLNLRESATITCLVTGFSPADVFVQWMQRGQPLSPEKYVTSAPMPEPQAPGRYFAHSILTVSEEEWNTGETYTCVVAHEALPNRVTERTVDKSTGK
Take B1: the Kd came out at 1090 nM.
